# From a protein production outcome set (Wang et al. 2014)
# Assay: label from the status in PepcDB records
# 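Note: failed if final PepcDB status was selected cloned or expressed and not failed if soluble or beyond.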
sequence,measurement,value
VDAGRGAEHDEAVTSDDSASVEVPRRATPADAATVAQMLHDFNTEFGAPTPGTDELASRLSHLLAGEDVVVLLAGEPPTGLAVLSFRPNVWYPGPVAILDELYVRPGRRGHRLGSALLAASCGLVRSRGGALLEINVDGEDTDARRFYEARGFTNTEPNGTEPMLYYYREL,protein production,not failed
VDKCDEPLSILVRNNKGRSSTYEVRLTQTVAHLKQQVSGLEGVQDDLFWLTFEGKPLEDQLPLGEYGLKPLSTVFMNLRLRGGGTEP,protein production,failed
VDKKAPQISFQARLLRDNVTIFLDFSGRGLFQRGYREHSGAAPLKENLAAALIIRSGWLNDTSKPLVDPMCGSGTILIEAVSMAAKQAPAINRQSWGFEAWLSHDNAVWQKQLTLAIDSSEENMSNLKVKVFGIDIDERVLRTAQQNARNAQLHQYIEFTCKNTNDMDNTFGQPGTILFNPPYGERIGELPELVENFVLFGQKLKMQFKDWRIAILTANVDLLSMLKLSSFKRYKFKNGPLDCQLALYNLDAKQG,protein production,failed
VEPVPDTHLRGITCLDHENEKVNMYCVSDDQLICALCKLVGRHRDHQVASLNDRFEKLKQTLEMNLTNLVK,protein production,not failed
VGTIDQLVKRVIEGSLSPKERTLLKEDPAYWFLSDENSLEYKYYKLKLAEMQR,protein production,not failed
VILSATRPFVCSRAPLGLSESAFMPLNGRTKMITKMPFRLVSLSCLELHRASSFWDIGFCTGSVSIEAKLNFPHLHITAFEIRPEGAELMPVNSRRFGAPGIAYRIGDFMEEDISSLAPPDAVFIGGHGGRLVEMIAKVHSVMTKGGLLVFNSVSEESRHLFLTGIEACGMELLSSIRLTADGNNPIDILQARKKE,protein production,failed
VITVGNYKGGAGKTTNVVLLAYKLAKKGLKVCVLDLDPQSNATKSLLLTKSSLYQDEVVTIEKTLMTGISEKNLDGLEVKIMDNLYLLPSYIDFEDFPKYLYKNTSNQREEDYYLKNIFTPLQGKYDIVLIDVPPMSKAVTRNAVICSDYVLISLQTHERSLSGAESYVEELNKLHNEYDLDLEVVGVLPVIHKNNGSVDQYVMEVAKETFGEDNLFENVVPQMERIKRFDVNGITDKDRHDQKVLNLYDKVSDELLD,protein production,failed
VIVDSVGNVLSDGDTVSITKTIKVKGAQQPLKSGMKARNIRLKPEVGTGPEDHNIECKIDGFGQMILKPAVVKKIV,protein production,failed
VIWNQLDARERLERQNDLFRRAQKLANIGAWEYEVSSGEVFWTRQVREIHGLPQGYEPTAEEAIAAYHPEDQPVIQGMIERAVEEEVPFDRELRLGGEALPVGHEQKEGRWVRARGTPQIEAGEVTSVRGTFQDITERKAREHVLENEREALRSMYRITADREAGFEEKARRLIDLGREHLGLPYGFLTRITDETQEIVFASGTHPLLQPGESCPLSRSYCRNTIQEERSLVVQDAVAEGWAGDPAHQTFELGAYVGAQIIVEGELYGTFCFAAEEPREQAFAGRERVFVELMAQWASYELGQRRAKAQLKRQNARLDSFAGLVAHDLRNPLNVATGRLRLAREER,protein production,failed
VKAAQGLLLSVFHLYPKRKVEIILYNEKWAECFDEEKERLKLVFGPEIIAIHHIGSTSIPNMAAKPIIDMLIEVRSIEAVSQFDEQMKANGYTPKGENGIAGRRYFQKGGNKRTHHVHMYEQGNPAIERHLLFRDYLRAHPNIAKEYAVLKKQLAAQHPDSINQYIQGKDEWIKTAEENAKRWKKGRNNANGSIVCYNSENDENGGFTL,protein production,failed
VLAPNVYFNPDAPPRKKRPLNVCAPEVVFFPTEDGVNLRLTRYNGGGKGPVMLVHGLGVGSNIFSTDTISTNLLEYLYQHGYDVWLLDFRVSILLPASQQQWDGDQVARYDYPAAIRRIREATGAADVQCVVHCYGATTFFMSMLAGLEGVRSVVCSQIAADIVVPTATQVKTGLHLPTVLDKLGVSSLTAYTASDSNWFEKLYDTALKGYALAEAQGYCNNPVCHRITFMYASLYRHETLNETLHDNLHELFGVANMRTMEHLARMCREGRLVSFDGDDIYMPHFDRLQMPILFISGEQNECYLPESTERTFDKLAQRFGPERYSRLVVPGYGHIDCMFGKNAAADVYPAIVAHLDKT,protein production,failed
VLESVRKEWLEIMDRELLEKARSLINANYISTTLSTVDRNYEVNIAVISVLEMIGDDTIICARFGADKTYANLKETGKGVFMVLLTDNDKSKDGIRVYVELSADLQEGEYFDRIKKRLDNTTYKNFPLKNCLVFKIVKILPVSLLRK,protein production,not failed
VLLAITTGLVASLVNAKAYKGAEIFTNDAYLYGRYEIRMRVANASGILSTFFTYKNGSEVGNTFWEEIDIEVFGKNNATQWQSNIILGSSRPTIHTEEIHTADTSLADAYHTYVVEWTPDYVAWFLDGVEVRRITGTSTVTSLTNAQSLRFNIWSSESVPWVGAWDDSVLPVYQFVNYIDYKAYNATTKTFEGGWRDDFNNFDSSRWGKANWSFDMNRVDFAPENALVKDGILVLALTKENATGFNGTPPADEPASSSSSVAASSTPASSIAASSIAASVAASSVAVATSSVAASKASGGGSGGGAINGMWLLMLGSFVLLGWVHNQRQSHQQHQ,protein production,failed
VLTPRHIATLFTKLIPFKKNDKILDLCCGTGAFLIAGMNKLLSLKGIDAQNVKSNQLLGFEINPTMYICAISNMLFRGDGKSKIYNMDSINDDKVNKIISESAPTIGFINPPYSGKENKEDPTPKEITFLKKC,protein production,failed
VMPLILLPAVDVVEGRAVRLVQGKAGSQTEYGSAVDAALGWQRDGAEWIHLVDLDAAFGRGSNHELLAEVVGKLDVQVELSGGIRDDESLAAALATGCARVNVGTAALENPQWCARVIGEHGDQVAVGLDVQIIDGEHRLRGRGWETDGGDLWDVLERLDSEGCSRFVVTDITKDGTLGGPNLDLLAGVADRTDAPVIASGGVSSLDDLRAIATLTHRGVEGAIVGKALYARRFTLPQALAAVRD,protein production,not failed
VNATQRKLLMQLVIGAAWVDGDLDQPERQYLQTLLERQKLDHDPDLLVLLETPIGLPQLEAWLVTFLQGTSTPTRLAALATIANLLMADGVVNRSEHSLLDEIHSLMAQIPASRDEEEYRQAAPGLVQGLSGLVRRALNGAKHLFQ,protein production,not failed
VPMNIKGLFEVAVKVKNLEKSSQFYTEILGFEAGLLDSARRWNFLWVSGRAGMVVLQEEKENWQQQHFSFRVEKSEIEPLKKALESKGVSVHGPVNLEWMQAVSLYFADPNGHALEFTAL,protein production,not failed
VRHTVKIDKDTLLQDYGFHISESLPLTVVAVTAGGSAHGKLFPGDQILQMNNEPAEDLSWERAVDILREAEDSLSITVVRCTS,protein production,not failed
VTATQLAAKATTLYYLHKQAMTDEVSLLLEQALQLEPYNEAALSLIANDHFISFRFQEAIDTWVLLLDSNDPNLDRVTIIESINKAKKLM,protein production,not failed
VTPEQLQHHRFVLESVNGKPVTSDKNPPEISFGEKMMISGSMCNRFSGEGKLSNGELTAKGLAMTRMMCANPQLNELDNTISEMLKEGAQVDLTANQLTLATAKQTLTYKLADLMN,protein production,not failed
VTPQGLRIVLQDDYKQHMFSRGGAELTPFFEDLLLALAPLFEQVTNPLIISGHTDAIPFKKRFGRQSNWALSASRADVARKTLVEGGMPDDRVMQVTGMSDRALLNPDEPDSSENRRIELFILTTP,protein production,failed
VTTVGFDVAARLGTLLTAMVTPFSGDGSLDTATAARLANHLVDQGCDGLVVSGTTGESPTTTDGEKIELLRAVLEAVGDRARVIAGAGTYDTAHSIRLAKACAAEGAHGLLVVTPYYSKPPQRGLQAHFTAVADATELPMLLYDIPGRSAVPIEPDTIRALASHPNIVGVKDAKADLHSGAQIMADTGLAYYSGDDALNLPWLAMGATGFISVIAHLAAGQLRELLSAFGSGDIATARKINIAVAPLCNAMSRLGGVTLSKAGLRLQGIDVGDPRLPQVAATPEQIDALAADMRAASVLR,protein production,not failed
VWICTKCVRCKSCGSTTPGKGWDAQWSHDFSLCHDCAKLFAKGNFCPLCDKCYDDDDYESKMMQCGKCDRWVHSKCENLSDEMYEILSNLPESVAYTCVNCTERHPAEWRLALEKELQISLKQVLTALLNSRTTSHLLRYRQAAKPPDLNPETEESIPSRSSPEGPDPPVLTEVSKQDDQQPLDLEGVKRKMDQGNYTSVLEFSDDIVKIIQAAINSDGGQPEIKKANSMVKSFFIRQMERVFPWFSVKKSRFWEPNKVSSNSGMLPNAVLPPSLDHNYAQWQEREENSHTEQ,protein production,failed
